Results published in PMC10928148 (Molecular Therapy, 2024).

Key:
[1] = biological target: T1, Wuhan-Hu-1 S protein on plant-produced virus-like particles (Severe acute respiratory syndrome …, UniProt P0DTC2); test: ELISA; details: both partners purified
T1 construct: also called SARS-CoV-2 VLPs (Wuhan variant)

[2] = biological target: T2, Wuhan-Hu-1 S protein on plant-produced virus-like particles (Severe acute respiratory syndrome …, UniProt P0DTC2); test: ELISA; details: both partners purified
T2 construct: also called Spike protein of the Wuhan variant on VLPs; Wuhan variant

B1: COVA2-15 IgG (antibody, V domains shown)
VH: QVQLLESGGGLVQPGGSLRLSCAASGFTFSSYAMSWVRQAPGKGLEWASAISGSGGSTYYADSVEGRFTISRDNSKNTLYLQMNSLRAEDTAVYYCAKDTGYCGDDCYIKLIRGGPDYWGQGTLVTVSS
VL: DIVMTQSPLSLPVTLGQPASISCRSSQSLVYSDGNTFLNWFQQRPGQSPRRLIYQVSNRDSGVPDRFSGSGSGTDFTLKISRVEAEDVGVYYCMQGTHWPRTFGQGTKLEIK
EC50 [1]: 32 pM

B2: COVA2-15 monomeric IgA1 (antibody, V domains shown)
VH: B1 VH
VL: B1 VL
EC50 [1]: 54 pM

B3: COVA2-15 monomeric IgA2 (antibody, V domains shown)
VH: B1 VH
VL: B1 VL
EC50 [1]: 149 pM

B4: COVA2-15 secretory IgA1 (antibody, V domains shown)
VH: B1 VH
VL: B1 VL
EC50 [1]: 10 pM

B5: COVA2-15 secretory IgA2 (antibody, V domains shown)
VH: B1 VH
VL: B1 VL
EC50 [1]: 17 pM

B6: COVA2-15 IgG (antibody, V domains shown)
VH: B1 VH
VL: B1 VL
EC50 [2]: ~50 pM

B7: COVA2-15 monomeric IgA1 (antibody, V domains shown)
VH: B1 VH
VL: B1 VL
EC50 [2]: ~50 pM

B8: COVA2-15 monomeric IgA2 (antibody, V domains shown)
VH: B1 VH
VL: B1 VL
EC50 [2]: ~50 pM

B9: COVA2-15 secretory IgA1 (antibody, V domains shown)
VH: B1 VH
VL: B1 VL
EC50 [2]: ~10 pM

B10: COVA2-15 secretory IgA2 (antibody, V domains shown)
VH: B1 VH
VL: B1 VL
EC50 [2]: ~10 pM
